The data set “cryo-EM structure” concerns the molecule itself. Nature of the data set: cryo-EM structure.
Data set [1] concerns the molecule itself. In words: TIRF microscopy of assembled microtubules.

B1: mouse α-tubulin isotype α4A (natural protein)
chain: MRECISVHVGQAGVQMGNACWELYCLEHGIQPDGQMPSDKTIGGGDDSFTTFFCETGAGKHVPRAVFVDLEPTVIDEIRNGPYRQLFHPEQLITGKEDAANNYARGHYTIGKEIIDPVLDRIRKLSDQCTGLQGFLVFHSFGGGTGSGFTSLLMERLSVDYGKKSKLEFSIYPAPQVSTAVVEPYNSILTTHTTLEHSDCAFMVDNEAIYDICRRNLDIERPTYTNLNRLISQIVSSITASLRFDGALNVDLTEFQTNLVPYPRIHFPLATYAPVISAEKAYHEQLSVAEITNACFEPANQMVKCDPRHGKYMACCLLYRGDVVPKDVNAAIAAIKTKRSIQFVDWCPTGFKVGINYQPPTVVPGGDLAKVQRAVCMLSNTTAIAEAWARLDHKFDLMYAKRAFVHWYVGEGMEEGEFSEAREDMAALEKDYEEVGIDSYEDEDEGEE
For B1, the binding result in “cryo-EM structure” is “binds”.

B2: recombinant mouse α4A/β2A tubulin heterodimer (complex)
chain 1: B1 chain
chain 2: […]
As to B2, in data set [1], the binding result was “binds”.

B3: mouse α-tubulin isotype α1C (natural protein)
chain: MRECISIHVGQAGVQIGNACWELYCLEHGIQPDGQMPSDKTIGGGDDSFNTFFSETGAGKHVPRAVFVDLEPTVIDEVRTGTYRQLFHPEQLITGKEDAANNYARGHYTIGKEIIDLVLDRIRKLADQCTGLQGFLVFHSFGGGTGSGFTSLLMERLSVDYGKKSKLEFSIYPAPQVSTAVVEPYNSILTTHTTLEHSDCAFMVDNEAIYDICRRNLDIERPTYTNLNRLISQIVSSITASLRFDGALNVDLTEFQTNLVPYPRIHFPLATYAPVISAEKAYHEQLTVAEITNACFEPANQMVKCDPRHGKYMACCLLYRGDVVPKDVNAAIATIKTKRTIQFVDWCPTGFKVGINYQPPTVVPGGDLAKVQRAVCMLSNTTAIAEAWARLDHKFDLMYAKRAFVHWYVGEGMEEGEFSEAREDMAALEKDYEEVGADSAEGDDEGEEY
For the protein B3, in the data set “cryo-EM structure”, the binding result is recorded as “binds”.

For the origin of these results see paper doi:10.1101/2023.03.06.531442 (bioRxiv, 2023).
